± gives the uncertainty stated by the source.

The series in a line: amyloid nucleation score (Sup35N fusion, yeast selection) (log enrichment); library NNK1; higher = more nucleation; inactive = no reads after selection. An outline of the steps: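 Psi-negative yeast expressed Sup35N fused to peptides of 20 random codons. They were induced 24 hours with 100 μM copper sulfate, grown 7 days at 30°C without adenine and uracil, and their plasmid inserts from input and output were Illumina-sequenced. The nucleation score is the DiMSum log enrichment of output over input reads, centred on the mode score of non-aggregating sequences. Sequences with under 100 input reads were excluded.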
In turn, SDFLTWCDQSLRCVDRYPNA came in with an amyloid nucleation score of 0.648 ± 0.97.

Regarding SDGRNHTANYPWG, the amyloid nucleation score was -0.182 ± 0.65.

SDRGSKPMSVYNLRC registered an amyloid nucleation score of 0.305 ± 0.75.

Regarding SDRPMRFNFSNNAYDSHLYL, the amyloid nucleation score is 0.511 ± 0.67.

As to SDSLFPTPLDFKMKIWGIMV, the amyloid nucleation score was 0.062 ± 0.85.

In turn, SDTLCPSADWVRRSARCQVD came in with an amyloid nucleation score of 0.8 ± 0.74.

On to SDTRYGLFVNWRFWDRGSGW, for which the amyloid nucleation score came out at 0.238 ± 0.34.

SDTVWFPYKLITSLHQSAKW registered an amyloid nucleation score of 1.41 ± 0.14.

On to SDVKF, for which the amyloid nucleation score was 2.95 ± 0.11.

As to SDYFYSGKGFFLAMGLSMSR, the amyloid nucleation score is -1.5 ± 1.8.

As to SECYFSVWFANTALQNRV, the amyloid nucleation score is 0.034 ± 0.4.

Regarding SEEYWVLDWIEVGLKGSLRM, the amyloid nucleation score is -0.105 ± 0.55.

Consider SEFASLERSHSHLYMWEFSL, for which the amyloid nucleation score worked out at 0.171 ± 0.63.

With SERDRLSLMRRVAM, the amyloid nucleation score is -0.153 ± 1.4.

With SETFEHRLRD, the amyloid nucleation score was -0.437 ± 0.28.

Substance SETLTMFRYCISIRDKGPQG displayed an amyloid nucleation score of 1.24 ± 0.37.

With SEYAVNSGSITFFIHAVWCW, the amyloid nucleation score is 0.349 ± 0.26.

Substance SFAVHVGVANSSGSCLMLGG yielded an amyloid nucleation score of 0.277 ± 0.3.

For the substance SFCLFNVIYQFIGKRCPNSG, the amyloid nucleation score is 3.82 ± 0.1.

SFEDGGLMFMAPDIRGTGTR: the amyloid nucleation score was found to be 0.884 ± 0.79.

SFESVFRHCRVRCCYGKIRQ returned an amyloid nucleation score of 0.685 ± 0.31.

SFEWSSFTYFSNFWWLEPNT showed an amyloid nucleation score of 0.738 ± 0.65.

In turn, SFFWDT had an amyloid nucleation score of -0.524 ± 0.51.

Take SFHLSQFYKNTHMWLIVFES: the amyloid nucleation score entry is “inactive”.

SFIELMMASRLF had an amyloid nucleation score of 0.367 ± 0.35.

For the substance SFKGYVSWVGSPHRAVG, the amyloid nucleation score amounted to 0.425 ± 0.86.

As to SFPVQQIYF, the amyloid nucleation score came out at 0.971 ± 0.49.

Turning to SFRACFGPWLFIALIPKNTV, the amyloid nucleation score is -1.1 ± 0.61.

SFRCMEYSWGDWVINPPYLS showed an amyloid nucleation score of 0.234 ± 0.62.

As for SFSFKCDYYVPCRRYIFVIL, the amyloid nucleation score was -1.3 ± 1.1.

As for SFSKYAGFARKWSMLRVASY, the amyloid nucleation score is -0.337 ± 1.2.

SFSLSLVFRISPDGLGHFLQ had an amyloid nucleation score of 0.412 ± 0.3.

With SFSNVRNI, the amyloid nucleation score was -1.52 ± 0.81.

In the case of SFTVVGLKLTIVRDNNS, the amyloid nucleation score amounted to 3.86 ± 0.12.

In the case of SFVCCFRLPWMGGTKNPMHV, the amyloid nucleation score worked out at 3.55 ± 0.19.

In turn, SFVNTNHRMRRCYTTENNPS came in with an amyloid nucleation score of -0.796 ± 0.68.

Turning to SFVVTAEPSRAMNYSCFWKR, the amyloid nucleation score entry was “inactive”.

In turn, SFYLFCPNCGRWTVFGEYS showed an amyloid nucleation score of -1 ± 0.31.

In the case of SFYYIWRGLVTSED, the amyloid nucleation score is -0.779 ± 0.8.

With SGAVIYANKFYVISCHNWSY, the amyloid nucleation score worked out at 7.478 ± 0.057.

SGDCVL: the amyloid nucleation score was 1.43 ± 0.26.

SGGLNFLGLPVVFF displayed an amyloid nucleation score of 0.173 ± 0.92.

Substance SGGPGDAGRLRQ registered an amyloid nucleation score of -0.005 ± 0.91.

SGHGFLRQ: the amyloid nucleation score entry was “inactive”.

As for SGHTVVMVMNMCCVSFHLRC, the amyloid nucleation score came out at 6.562 ± 0.048.

As for SGIPSVLATGYSYKF, the amyloid nucleation score is -0.273 ± 0.29.

Substance SGIYGCSGRQDIKSKNYGSR yielded an amyloid nucleation score of 1.12 ± 0.56.

In the case of SGMVLNNQSS, the amyloid nucleation score is -0.763 ± 0.79.

In turn, SGNMNSLYWKSQKCNSYSFP had an amyloid nucleation score of 0.935 ± 1.1.

Take SGRWLYVLVPICMPYVAELS: the amyloid nucleation score entry was “inactive”.

SGSDVILAYTPTPPGDSPVW showed an amyloid nucleation score of 0.645 ± 0.61.

In the case of SGSLGS, the amyloid nucleation score stood at 0.386 ± 0.84.

Take SGTQKNRCTSLMQC: the amyloid nucleation score is 0.709 ± 0.53.

Consider SGTRFLFEPSELINPYNHRC, for which the amyloid nucleation score turned out to be 1.15 ± 0.68.

SGTSLPNITLLDTFCTRCFV yielded an amyloid nucleation score of -0.095 ± 0.22.

SGWIRLL registered an amyloid nucleation score of 0.66 ± 0.36.

In turn, SGYSRGKEEQKHQFA had an amyloid nucleation score of 0.137 ± 0.6.

As for SHAFRITS, the amyloid nucleation score stood at 0.619 ± 0.85.

Regarding SHCCR, the amyloid nucleation score entry was “inactive”.

The substance SHDFVVIISNCR had an amyloid nucleation score of 5.57 ± 0.093.

On to SHFFLIT, for which the amyloid nucleation score was -0.48 ± 1.5.

In turn, SHFVLMLFENSIIVCLEDWE registered an amyloid nucleation score of 1.91 ± 0.57.

Regarding SHKGNPCRKIC, the amyloid nucleation score is -0.392 ± 0.38.

Regarding SHLLGINCCCA, the amyloid nucleation score stood at 0.131 ± 0.85.

As to SHPFTFSCAHILLWMSLRRF, the amyloid nucleation score worked out at 0.276 ± 0.45.

As for SHPTNFSCIVVSARQGVKKI, the amyloid nucleation score is -0.148 ± 0.79.

SHTADFRVLLRLIQYERGLR showed an amyloid nucleation score of 3.44 ± 0.18.

As to SHTLHDAIYGVDVQPFDTRV, the amyloid nucleation score is 0.102 ± 0.66.

SHVPEVGVGSDAVFLANKGI returned an amyloid nucleation score of -0.855 ± 0.69.

For the substance SIAFYFFKPLYVLVPNMFGY, the amyloid nucleation score turned out to be 6.15 ± 0.073.

Substance SICTCKWYVSVWWAIWRINN came in with an amyloid nucleation score of 1.59 ± 0.42.

For SIDWRAEMNSLSM, the amyloid nucleation score was -0.109 ± 0.24.

SIEGRSSIQATMCSMLLNGP gave an amyloid nucleation score of -0.197 ± 0.39.

In the case of SIFLCVSLSVTCETILAGLD, the amyloid nucleation score worked out at 2.8 ± 0.16.

SIGWYTQGRYVGMCHRN registered an amyloid nucleation score of 0.251 ± 0.53.

As for SIIIGMRLCHHVRSAYTNEL, the amyloid nucleation score was found to be 3.21 ± 0.18.

With SINVVLAINGTAHCNFSASL, the amyloid nucleation score amounted to 4.66 ± 0.067.

Regarding SIPLCTLESQSEKVTWISDQ, the amyloid nucleation score was 0.325 ± 0.78.

The substance SIRTLQDNSTSSENFKVESV had an amyloid nucleation score of 0.273 ± 0.64.

In turn, SITLS had an amyloid nucleation score of -0.926 ± 1.8.

Consider SIVGLNQ, for which the amyloid nucleation score turned out to be 0.742 ± 0.43.

Substance SIVRTDDIARLSLMLGRRSV yielded an amyloid nucleation score of -0.724 ± 0.56.

Consider SIYRHDA, for which the amyloid nucleation score was -0.053 ± 1.1.

For the substance SIYRYLCGRFDCLWILPCEH, the amyloid nucleation score worked out at 1.29 ± 0.84.

SKCCDSSRARVASSYS: the amyloid nucleation score was 0.261 ± 0.36.

In the case of SKETAFGLSL, the amyloid nucleation score is -0.368 ± 0.54.

SKKSMYFLVRNWSQNLTRAG yielded an amyloid nucleation score of 2.21 ± 0.63.

As for SKLCVCGTASLLHYTVTERV, the amyloid nucleation score was 5.29 ± 0.11.

As for SKLYLIEVFLYA, the amyloid nucleation score was -0.468 ± 0.66.

Consider SKMDGVATRYRYNAMRADVK, for which the amyloid nucleation score was determined as 0.181 ± 0.2.

SKQGRCLTFYQYVSLIISSM registered an amyloid nucleation score of -0.022 ± 0.18.

SKSRLL displayed an amyloid nucleation score of 0.006 ± 0.4.

Regarding SKSTYSLIGLGTFISRFNGN, the amyloid nucleation score was determined as 1.03 ± 0.36.

In the case of SKTRVLM, the amyloid nucleation score was -0.374 ± 0.41.

In turn, SKTSKWYPTDKLNTGALFLK displayed an amyloid nucleation score of -0.321 ± 0.34.

SKVCE came in with an amyloid nucleation score of 0.085 ± 0.66.

SKYIGVVSPTWLH gave an amyloid nucleation score of 0.428 ± 1.2.

Regarding SLCFYGEQIFHN, the amyloid nucleation score amounted to 2.24 ± 0.17.

Substance SLFAQKS returned an amyloid nucleation score of -0.273 ± 0.32.

SLFQGERIPFGWNEGQTKDV registered an amyloid nucleation score of -0.469 ± 1.2.

SLGCYCRVKIVWVCILGYTA displayed an amyloid nucleation score of 0.526 ± 0.27.

SLGGVGRTTHNILCEADSGA had an amyloid nucleation score of 1.44 ± 0.38.

As for SLGKLYAGDGVCMGTLPDSK, the amyloid nucleation score came to 0.017 ± 0.56.

The substance SLIFCSYSNDLFHSWNHKFR showed an amyloid nucleation score of -0.068 ± 0.7.

SLIGYVIKW returned an amyloid nucleation score of -0.095 ± 0.63.

The substance SLKGFADSVSGSVGLKDKAV registered an amyloid nucleation score of 0.502 ± 0.61.

Take SLLCLCYV: the amyloid nucleation score worked out at 7.599 ± 0.059.

With SLLCTIYRVCADPYMGQNMT, the amyloid nucleation score entry is “inactive”.

The substance SLLDMIYVIDTTTKNCILSK displayed an amyloid nucleation score of 0.983 ± 0.35.

SLLDSEGVRYLIMEL had an amyloid nucleation score of 0.102 ± 0.4.

Substance SLLDWCYINRHM yielded an amyloid nucleation score of 0.604 ± 0.44.

On to SLLGPIGIIQTWIPTHLDLF, for which the amyloid nucleation score entry is “inactive”.

Take SLLRRA: the amyloid nucleation score was determined as 0.575 ± 0.71.

For SLLTCILGFPSCPGASMMFQ, the amyloid nucleation score turned out to be 7.057 ± 0.067.

As for SLNGMTYVSMIVRSD, the amyloid nucleation score is 1.41 ± 0.39.

SLNSMVSLTWVRRDYTIWKR registered an amyloid nucleation score of 0.001 ± 0.23.

On to SLPAEYSRRPKWVGASTVDW, for which the amyloid nucleation score is 0.527 ± 0.55.

As to SLPRPIMFSLVVIILYNFVR, the amyloid nucleation score is -0.333 ± 0.47.

The substance SLRDACFGVNI displayed an amyloid nucleation score of -0.091 ± 0.29.

As to SLRLARNGYIYAICRFLCYS, the amyloid nucleation score was -1.15 ± 2.7.

SLRYSLCRL showed an amyloid nucleation score of 0.328 ± 0.24.

Take SLSQFSKPGYICVNMVCSQA: the amyloid nucleation score came out at 1.36 ± 0.48.

The substance SLSQG gave an amyloid nucleation score of 0.441 ± 0.93.

Substance SLTCWG yielded an amyloid nucleation score of 0.436 ± 0.33.

With SLTFVPTLFTCMDLMHC, the amyloid nucleation score was 7.415 ± 0.067.

In turn, SLVASNSQL returned an amyloid nucleation score of 0.06 ± 0.45.

SLVDGSHNNFRGWVPIVVQG showed an amyloid nucleation score of -0.079 ± 0.99.

SLVNFVAMGARDRIPCVYKR registered an amyloid nucleation score of -1.03 ± 2.4.

Turning to SLVRMLRHLRMDEKFLLIRY, the amyloid nucleation score was found to be 0.268 ± 0.53.

SLVWVCFWGICI showed an amyloid nucleation score of 6.67 ± 0.088.

On to SLYLGNSGSDLGD, for which the amyloid nucleation score is 0.2 ± 1.1.

The substance SLYRIFRKASFESCGLEWFA showed an amyloid nucleation score of 0.191 ± 0.66.

Turning to SMAFGCWSVGWYRGMMSVCQ, the amyloid nucleation score stood at 1.16 ± 0.6.

The substance SMFCARLDTRVSRTGFPDRG registered an amyloid nucleation score of -0.557 ± 0.61.

As to SMFLLRPYRVCFCSRRFVTV, the amyloid nucleation score came to 0.253 ± 0.77.

Substance SMLAFQMITKQRQHSFWMWT displayed an amyloid nucleation score of -0.766 ± 0.39.

As for SMLALGFPSVNCQWTGATFS, the amyloid nucleation score came to 1.22 ± 0.97.

Take SMSFRCLDAKDVPDRASQGY: the amyloid nucleation score is -0.385 ± 0.39.

For the substance SMSPWDFNICCMNVCTTLLT, the amyloid nucleation score is 2.77 ± 0.25.

Substance SMSSSWG returned an amyloid nucleation score of 0.19 ± 0.56.

In the case of SMVAPRPANVRVRLVGRGST, the amyloid nucleation score amounted to 0.354 ± 0.51.

(Values after the supplement of paper PMC12042874.)
